Measured values published in the supplement of paper PMC10065799, “High-throughput profiling of sequence recognition by tyrosine kinases and SH2 domains using bacterial peptide display” (eLife, 2023).

System: c-Src
Assay: phosphorylation enrichment, bacterial display (enrichment ratio); higher = better substrate or ligand; peptides without Tyr show the background
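Wherever SH2 binding enrichment of the phosphorylated peptide, bacterial display is given: peptide library displayed on the E. coli surface as eCPX fusions, selected cells deep-sequenced, score is each peptide's frequency after selection divided by its frequency in the input.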
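Wherever phosphorylation enrichment, bacterial display is given: 11-residue human phosphosite peptides and single-mutation variants displayed on the E. coli surface, counted by deep sequencing, each peptide's frequency after selection divided by its frequency in the unselected input library; frequency after pTyr selection over input frequency; kinase dosed for 20-30% of maximal phosphorylation in three min.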

Sequence | phosphorylation enrichment
SEASGYQDNIA [DES_Y363] | 0.427
NPQKSYFIHLF [WAS_Y83_R86H_YF] | 0.399
KWHREYNFKFV [RICTOR_Y835_S837F_YF] | 0.429
RRAKGYPIYLY [ITGB2_Y125_D128Y] | 1.04
SVTRTYSPALN [TP53_Y126_C124R] | 0.399
FPRTGYSVPFG [TGM1_Y370_L366P_YF] | 0.511
QAQMDYRRWQP [MPL_Y591_L594W] | 0.361
RLIEGYTGPFK [ZNF862_Y181] | 1.29
TEFIQYVRRKN [MAX_Y73_M74V_YF] | 0.473
NPQKSYLIRLY [WAS_Y83_F84L] | 0.374
PFTRNYYVRAV [CYBA_Y87] | 0.558
SLTCTYSPALN [TP53_Y126_V122L] | 0.804
YFRDGCMPRQY [GSS_Y270_Y270C] | 0.364
RHLREYPDLLN [DES_Y388_Q389P] | 0.453
IGNGFYFHVFS [MYBPC3_Y1136_R1138H_YF] | 0.381
DRLAVYIDRVP [LMNA_Y45_R50P] | 0.329
DRLASYSDKVR [KRT10_Y160_L161S] | 0.445

Sequence | phosphorylation enrichment
RVYRDYVLKSA [HTATIP2_Y111_D108Y] | 0.794
RLLVVYPRTQR [HBB_Y36_W38R] | 0.484
FAELVYTVFWH [ASS1_Y322_G324V] | 7.17
ELQDDYEDMME [SLC4A1_Y8] | 0.415
DEEDTYTMPST [PTK2_Y407] | 2.94
AIDVGYRHIDC [AKR1B1_Y40] | 0.411
LLTKVYVVEGS [ZMPSTE24_Y253_P248L] | 0.657
YEHVGYTTLNR [CHN1_Y148] | 0.655
KAWTIYHPEDS [ZBP1_Y165_R166H] | 0.833
NYGTNYRVGSS [CPO_Y278_K273N] | 0.425
VSSIPYGQPKQ [NEU1_Y251_G248S] | 0.447
PVQAAYEKVVA [HBB_Y131_Q132E] | 0.415
HFGCVYLGTLL [MET_Y1093_H1094L] | 4.61
RHLREYQDLLI [DES_Y388_N393I] | 0.482
SDRNLYSKNLV [CFAP58_Y501] | 0.435
HNQDGYSYPSR [LDLR_Y845] | 0.661

Molecular target: Grb2 SH2 (UniProt P62993)
Sequence (P62993 whole entry, looked up): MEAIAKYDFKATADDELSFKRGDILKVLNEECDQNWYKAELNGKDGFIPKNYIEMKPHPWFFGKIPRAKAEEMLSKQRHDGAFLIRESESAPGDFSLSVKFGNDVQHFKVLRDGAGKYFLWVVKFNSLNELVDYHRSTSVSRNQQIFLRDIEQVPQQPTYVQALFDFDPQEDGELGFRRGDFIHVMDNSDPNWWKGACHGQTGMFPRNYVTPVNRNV
Assay: SH2 binding enrichment of the phosphorylated peptide, bacterial display (enrichment ratio); higher = better substrate or ligand; peptides without Tyr show the background

Sequence | SH2 binding enrichment
SEASGYQDNIA [DES_Y363] | 0.907
NPQKSYFIHLF [WAS_Y83_R86H_YF] | 1.19
KWHREYNFKFV [RICTOR_Y835_S837F_YF] | 1.27
RRAKGYPIYLY [ITGB2_Y125_D128Y] | 0.695
SVTRTYSPALN [TP53_Y126_C124R] | 0.961
FPRTGYSVPFG [TGM1_Y370_L366P_YF] | 0.987
QAQMDYRRWQP [MPL_Y591_L594W] | 0.635
RLIEGYTGPFK [ZNF862_Y181] | 0.808
TEFIQYVRRKN [MAX_Y73_M74V_YF] | 0.863
NPQKSYLIRLY [WAS_Y83_F84L] | 1.22
PFTRNYYVRAV [CYBA_Y87] | 0.799
SLTCTYSPALN [TP53_Y126_V122L] | 0.657
YFRDGCMPRQY [GSS_Y270_Y270C] | 1.08
RHLREYPDLLN [DES_Y388_Q389P] | 1.25
IGNGFYFHVFS [MYBPC3_Y1136_R1138H_YF] | 0.982
DRLAVYIDRVP [LMNA_Y45_R50P] | 0.756
DRLASYSDKVR [KRT10_Y160_L161S] | 1.04

Sequence | SH2 binding enrichment
RVYRDYVLKSA [HTATIP2_Y111_D108Y] | 0.959
RLLVVYPRTQR [HBB_Y36_W38R] | 0.799
FAELVYTVFWH [ASS1_Y322_G324V] | 1.1
ELQDDYEDMME [SLC4A1_Y8] | 0.907
DEEDTYTMPST [PTK2_Y407] | 0.869
AIDVGYRHIDC [AKR1B1_Y40] | 1.04
LLTKVYVVEGS [ZMPSTE24_Y253_P248L] | 0.795
YEHVGYTTLNR [CHN1_Y148] | 0.904
KAWTIYHPEDS [ZBP1_Y165_R166H] | 0.897
NYGTNYRVGSS [CPO_Y278_K273N] | 0.924
VSSIPYGQPKQ [NEU1_Y251_G248S] | 0.79
PVQAAYEKVVA [HBB_Y131_Q132E] | 0.885
HFGCVYLGTLL [MET_Y1093_H1094L] | 0.692
RHLREYQDLLI [DES_Y388_N393I] | 1.59
SDRNLYSKNLV [CFAP58_Y501] | 0.823
HNQDGYSYPSR [LDLR_Y845] | 1.07

Molecular target: SHP2-C SH2
Assay: as above

Sequence | SH2 binding enrichment
SEASGYQDNIA [DES_Y363] | 0.567
NPQKSYFIHLF [WAS_Y83_R86H_YF] | 1.08
KWHREYNFKFV [RICTOR_Y835_S837F_YF] | 1.77
RRAKGYPIYLY [ITGB2_Y125_D128Y] | 0.504
SVTRTYSPALN [TP53_Y126_C124R] | 0.579
FPRTGYSVPFG [TGM1_Y370_L366P_YF] | 1.4
QAQMDYRRWQP [MPL_Y591_L594W] | 0.55
RLIEGYTGPFK [ZNF862_Y181] | 0.862
TEFIQYVRRKN [MAX_Y73_M74V_YF] | 0.609
NPQKSYLIRLY [WAS_Y83_F84L] | 1.15
PFTRNYYVRAV [CYBA_Y87] | 1.21
SLTCTYSPALN [TP53_Y126_V122L] | 0.453
YFRDGCMPRQY [GSS_Y270_Y270C] | 0.637
RHLREYPDLLN [DES_Y388_Q389P] | 0.878
IGNGFYFHVFS [MYBPC3_Y1136_R1138H_YF] | 0.7
DRLAVYIDRVP [LMNA_Y45_R50P] | 0.912
DRLASYSDKVR [KRT10_Y160_L161S] | 0.667

Sequence | SH2 binding enrichment
RVYRDYVLKSA [HTATIP2_Y111_D108Y] | 0.612
RLLVVYPRTQR [HBB_Y36_W38R] | 0.429
FAELVYTVFWH [ASS1_Y322_G324V] | 1.05
ELQDDYEDMME [SLC4A1_Y8] | 0.665
DEEDTYTMPST [PTK2_Y407] | 0.563
AIDVGYRHIDC [AKR1B1_Y40] | 1.12
LLTKVYVVEGS [ZMPSTE24_Y253_P248L] | 0.66
YEHVGYTTLNR [CHN1_Y148] | 19.4
KAWTIYHPEDS [ZBP1_Y165_R166H] | 0.875
NYGTNYRVGSS [CPO_Y278_K273N] | 0.639
VSSIPYGQPKQ [NEU1_Y251_G248S] | 0.575
PVQAAYEKVVA [HBB_Y131_Q132E] | 0.886
HFGCVYLGTLL [MET_Y1093_H1094L] | 0.553
RHLREYQDLLI [DES_Y388_N393I] | 0.851
SDRNLYSKNLV [CFAP58_Y501] | 0.811
HNQDGYSYPSR [LDLR_Y845] | 0.707

Molecular target: c-Src SH2
Assay: as above

Sequence | SH2 binding enrichment
SEASGYQDNIA [DES_Y363] | 0.52
NPQKSYFIHLF [WAS_Y83_R86H_YF] | 0.604
KWHREYNFKFV [RICTOR_Y835_S837F_YF] | 1.25
RRAKGYPIYLY [ITGB2_Y125_D128Y] | 0.477
SVTRTYSPALN [TP53_Y126_C124R] | 0.424
FPRTGYSVPFG [TGM1_Y370_L366P_YF] | 3.87
QAQMDYRRWQP [MPL_Y591_L594W] | 0.386
RLIEGYTGPFK [ZNF862_Y181] | 0.472
TEFIQYVRRKN [MAX_Y73_M74V_YF] | 0.492
NPQKSYLIRLY [WAS_Y83_F84L] | 0.874
PFTRNYYVRAV [CYBA_Y87] | 0.615
SLTCTYSPALN [TP53_Y126_V122L] | 0.487
YFRDGCMPRQY [GSS_Y270_Y270C] | 0.499
RHLREYPDLLN [DES_Y388_Q389P] | 1.09
IGNGFYFHVFS [MYBPC3_Y1136_R1138H_YF] | 0.484
DRLAVYIDRVP [LMNA_Y45_R50P] | 0.471
DRLASYSDKVR [KRT10_Y160_L161S] | 0.521

Sequence | SH2 binding enrichment
RVYRDYVLKSA [HTATIP2_Y111_D108Y] | 0.481
RLLVVYPRTQR [HBB_Y36_W38R] | 0.581
FAELVYTVFWH [ASS1_Y322_G324V] | 0.713
ELQDDYEDMME [SLC4A1_Y8] | 0.747
DEEDTYTMPST [PTK2_Y407] | 0.469
AIDVGYRHIDC [AKR1B1_Y40] | 0.98
LLTKVYVVEGS [ZMPSTE24_Y253_P248L] | 0.456
YEHVGYTTLNR [CHN1_Y148] | 16.5
KAWTIYHPEDS [ZBP1_Y165_R166H] | 0.518
NYGTNYRVGSS [CPO_Y278_K273N] | 0.55
VSSIPYGQPKQ [NEU1_Y251_G248S] | 0.339
PVQAAYEKVVA [HBB_Y131_Q132E] | 2.59
HFGCVYLGTLL [MET_Y1093_H1094L] | 0.483
RHLREYQDLLI [DES_Y388_N393I] | 1.79
SDRNLYSKNLV [CFAP58_Y501] | 0.423
HNQDGYSYPSR [LDLR_Y845] | 6.74
